Experimental data from the supplement of paper PMC9170038.

Test system: MS2 coat protein
Experiment: apparent KD of MS2 coat protein; higher = weaker reporter binding
Settings: Eterna round: R107
Procedure, shortened: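 Normalised binding curves from single clusters were fitted, and the median fit for each design is given as apparent KD. The clusters held designed RNA switches transcribed on-chip from Illumina sequencing clusters. These were titrated with SNAP-549-labelled MS2 coat protein (twofold steps from 0.7 or 1.5 nM to 3 µM, 0.8–1.5 h to 10–20 min per step) in 100 mM Tris-HCl pH 7.5, 80 mM KCl, 4 mM MgCl2, without or with constant ligand.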

[1] = input ligand: theophylline 20 uM
[2] = input ligand: theophylline 2 mM
[3] = input ligand: tryptophan 2.4 mM

Sequence | apparent KD of MS2 coat protein (input ligand: arginine 13.2 mM) [nM] | apparent KD of MS2 coat protein [1] [nM] | apparent KD of MS2 coat protein [2] [nM] | apparent KD of MS2 coat protein (input ligand: none) [nM] | apparent KD of MS2 coat protein [3] [nM]
AUGGAGACCUCGGCCGCCACUCUCCAUGAGGAUCUCCCAUGUAACAUGAGGAUCACCCAUGUACUGAGGACCGGGAGGUCCUUGA [Same State Tryptophan B GF 17] | 7.9 | 10.8 | 10.1 |  | 
AUUAAAGUUUAUAAGGAAAUUGAAACAGAAGGAGCGUGAGUAAUCACAGGUAGGUCGCUGGUAGUACAUGAGGAUCACCCAUGUU [JR_Nu_SSArginiA_Sub020] | 22.2 | 30.6 | 24.2 | 20.1 | 21.3
AUUCAUAAUUGGGUAAAUGGAUAGAGUGAUACCAGUCAUAUACAUGACCCUUGGCAGCACAAGGACAUGAGGAUCACCCAUGUCA [Same State Theophylline A GF22] | 21.1 | 26.7 |  |  | 28.9
AUUCAUGGAAACAUGACAUAGGGAUCUAGCCGAGGACCGGUACGGCCGCCACUCGCUUGGAGGCACAUGAGGAUCACCCAUGUUA [SS Tryp A #6] | 42.3 | 140 | 140 |  | 
CAAUAAGUAACUGAUACCAGUGUACUGACAUGAGGAUCACCCAUGUUGGGUUUUGUUGUACACCCUUGGCAGCAGAAUCUUAUUG [AstrosExyTheB#12] | 44.2 | 67.2 |  |  | 55.4
CAAUAUAUAUGAAGGAGCGUCGAAAAUGGGUAAACAUGAGGAUCACCCAUGUAAAGGGAACGACAGGUAGGUCGCAUAUAUAUUG [AstromonsSSArgB#8] | 117 | 305 | 218 | 168 | 192
CACAGUGCGAAUUUGAAAUCGCACGAUCCUCGAGGACCGGUACGGCCGCCACUCGCGCGGGUCGUACAUGAGGAUCACCCAUGUC [Beertele] | 44 | 600 | 907 |  | 
CACGCGGUGUCGGCCGCCACUGACGCCCGUGGGUCUCCUGACAUGAGGAUCACCCAUGUACAGCGCAGGACCGGGACACCAACAA [Are] | 22 | 59 | 64.2 | 49.4 | 29.3
CAGAGCUACCGGGAUACCAGAAUUGGUAUUCCUAUAUUUCUUACAUGAGGAUCACCCAUGUUCCCUUGGCAGCUUGGUAGCUCUG [ETHB #9] | 45.1 | 87.6 |  |  | 68.8
CAUAAUUUAUCCUAUAAAACUAUUAGUGAUACCAGCACCUCAUGAUGCCCUUGGCAGCACUUACAUGAGGAUCACCCAUGUUUUA [JR_NU_SSTheophyA_Sub029] | 99.6 | 223 |  |  | 158
CAUAUAUAUUGAAGGAGCGACAUGAGGAUCACCCAUGUCUACCACGUCGAAAGACGCUCAUGUCAGGUAGGUCGCAAUAUAUAUG [Astros-Eli-mod5] | 41.5 | 86.2 | 144 | 124 | 106
CCAUGCAGGUCGGCCGCCACUACACACAUGAGGAUCACCCAUGUAGUUACUGGGUGAAGUGGCAGUAGGACCGGGACCUGCAUAC [Brourdmod12] | 78.2 | 459 | 540 | 341 | 395
CCGACAUGAGGAUCACCCAUGUGAACAGAUACCAGUCUGGUAAUAGACCCUUGGCAGCUGAACCAGGAAACUAUGGUGAUCCUGG [Theo A SS t3] | 66 | 89.5 | 187 | 69.8 | 83.6
CCGUCACAUGAGGAUCACCCAUGUGCGGAAGGAGCGGACGAAAGUCCAGGUAGGUCGCCGUAUAGCCAAUGACCAGCAGUGUCGG [XARG-A 21] | 12.1 | 15.4 | 14.8 | 12.6 | 14.4
CCUAUGCAGUCGGCCGCCACUGAACAUGAGGAUCACCCAUGUAACGGAAACGAAGAUCCUGAAAUCAGGACCGGGACUGUAUAGG [Ex Tryptophan B 3] | 92.6 | 221 | 185 | 154 | 382
CCUAUGCAGUCGGCCGCCACUGAACAUGAGGAUCACCCAUGUAAUUAUAAAUAUGGUCCUAAAAUCAGGACCGGGACUGUAUAGG [Ex Tryptophan B 7] | 122 | 144 | 296 | 64.2 | 237
CCUAUGCAGUCGGCCGCCACUGAGUCCUCAAUAAUAAAUUAAUAAACAUGAGGAUCACCCAUGUACAGGACCGGGACUGUAUAGG [Ex Tryptophan B 12] | 165 | 324 | 441 |  | 
CCUAUGCAGUCGGCCGCCACUGAUAACGUUAUCGUUACCUCAGAAACAUGAGGAUCACCCAUGUACAGGACCGGGACUGUAUAGG [Ex Tryptophan B 19] | 14.4 | 14.6 | 13.2 |  | 
CCUCACAUGAGGAUCACCCAUGUCUUUACACGAGGACCGGUACGGCCGCCACUCGUUCACAAAACAACCAGAAGUGAUGCCUACA [theeternabot_sameState_MS2_Trp_A_14] | 80.2 | 183 | 214 |  | 

Sequence | apparent KD of MS2 coat protein (input ligand: arginine 13.2 mM) [nM] | apparent KD of MS2 coat protein [1] [nM] | apparent KD of MS2 coat protein [2] [nM] | apparent KD of MS2 coat protein (input ligand: none) [nM] | apparent KD of MS2 coat protein [3] [nM]
CCUCAUGUGUAUCACCACAUGAGUGGUGAUACCAGCAUCGAAAGAUGCCCUUGGCAGCACCAACAUGAGGAUCACCCAUGUAAUA [(M)'-(T)'-(M)''-(T1)-(T2)-(M1)-(M2)_Design2] | 60.3 | 284 |  |  | 287
CCUCGACAUGAGGAUCACCCAUGUAGAGAUACCAGCCUGUGAGAUGGCCCUUGGCAGCUCAUAUAGGGUACAGGAGUCGUUUUGA [Qugetila] | 23.5 | 63.2 |  |  | 23.9
CCUCGACAUGAGGAUCACCCAUGUAGAGAUACCAGCCUGUGAGAUGGCCCUUGGCAGCUCAUAUAGGGUACGGGAGUCGUUUCGA [Eslaqu] | 19.4 | 48.4 | 263 | 22.2 | 22.1
CGAAUAUAGACGGCCGCCACUCUACAAACAUGAGGAUCACCCAUGUUCACAUAGUGGAAACACAUGAGGACCGGGUCAUAGGCUU [#19 Same State - Tryptophan B] | 23.2 | 26.9 | 23.9 |  | 
CGAGUGAGUUCAAUCGAAUAACGGUUUUCGCGAGGACCGGUACGGCCGCCACUCGUGUGAUAUCACACAUGAGGAUCACCCAUGU [3'end-1] | 34.7 | 49 | 63.4 |  | 
CGAUACAAAUAAAGCGUUCGUCCGCCAGAUACCAGAUUCAUUUCCAUCCCUUGGCAGCUGUCGACAUGAGGAUCACCCAUGUUUG [theeternabot_exclusion_MS2_Theo_A_41] | 17.2 | 21.7 |  |  | 19.9
CGAUAUAUACGAAGGAGCGACAUGAGGAUCACCCAUGUCUACCACGUCGAAAGACGCUCAUGUCAGGUAGGUCGCGUAUAUAUCG [Astros-Eli-mod9] | 56.7 | 123 | 239 | 137 | 117
CGCAAGCAACAUGAGGAUCACCCAUGUGAAGGAGCGCCGAAUAAGGCAGGUAGGUCGCACAUGAAUAAAUCAUGUAAAAGCUUGC [MAT - Exclusion Arginine A - Mod of Eli - D22] | 33.7 | 52.9 | 160 | 62.7 | 58.3
CGCCGAGAGGGAAGGAGCGCGAUAACAUAACAUGAGGAUCACCCAUGUAAGAAAUUAAUCAUGCAGGUAGGUCGCCCAAGCGGCG [Same State Arginine B GF 3] | 15 | 23.8 | 19.4 | 15.1 | 14.9
CGCGGACCACCUGAUACCAGCGCAGUCAUGCAUGAACCCAACAUGAGGAUCACCCAUGUACGCCCUUGGCAGCAGGGAAAAGUCG [theeternabot_exclusion_MS2_Theo_B_8] | 76.4 | 223 |  |  | 163
CGCUACAUGAGGAUCACCCAUGUUACUCCGCGAGGACCGGUACGGCCGCCACUCGGCAGUUUGCGCCGCCGGAGGCACUCUUCAG [theeternabot_sameState_MS2_Trp_A_32] | 20.9 | 43.6 | 33.7 |  | 
CGGACAUGAGGAUCACCCAUGUACACUGAAGGAGCGUCGAGAACGACAGGUAGGUCGCAGGCUAAGGAAGGUGAUGCUCAAGAAG [Exclusion Arginine A GF5] | 37.8 | 47.3 | 41.1 | 36.5 | 23.6
CGGGCCGCUGCGGAUACCAGUUGAGCAUAGGUAGUGUAUGACAUGAGGAUCACCCAUGUUAACCCUUGGCAGCCGAGAGGGCAGA [theeternabot_exclusion_MS2_Theo_B_13] | 10.4 | 20.2 | 15.4 | 11.6 | 10.2
CUAAGAGCGGCGGCCGCCACUGGUAACCGAGAGGAGGAGCUUCUGAACAUGAGGAUCACCCAUGUCAGGACCGGGUCGUCUUAGA [Same State - Tryptophan B] | 15.5 | 18.5 | 14.9 | 13.8 | 16.6
CUACAUUUGUAGAAACCGGUCAACAAUAAUCGAGGACCGGUACGGCCGCCACUCGUAUAAUUUAAUACAUGAGGAUCACCCAUGU [Tryptophan A 1] | 13.7 | 19.4 | 19.4 |  | 
CUACAUUUGUAGAAACCGGUCAACAAUAAUCGAGGACCGGUACGGCCGCCACUCGUAUAAUUUAUUACAUGAGGAUCACCCAUGU [Tryptophan A 2] | 13.6 | 16.7 | 15.4 |  | 
CUAUAAAUAUGAAGGAGCGUCGAAAAUGGGUAAACAUGAGGAUCACCCAUGUAAAGGGAACGACAGGUAGGUCGCAUAUUUAUAG [AstromonsSSArgB#11] | 139 | 188 | 257 | 180 | 219
CUAUGCAGGUCGGCCGCCACUACACACAUGAGGAUCACCCAUGUAGUUACUGGGUGAAGUGGCAGUAGGACCGGGACCUGCAUAC [Brourdmod10] | 139 | 394 | 817 | 391 | 362
CUAUUCUGUACGGCCGCCACUUCAACGUGUAAGCUGGUGGUCCACUACAUGAGGAUCACCCAUGUAAGGACCGGGUACGGCGCGG [theeternabot_exclusion_MS2_Trp_B_29] | 12 | 16.6 | 69.4 | 12.5 | 40
